# Results taken from patent US20160039904A1, “STABILIZED SINGLE HUMAN CD4 DOMAINS AND FUSION PROTEINS” (priority 2013, published 2016).
# B1: m36.4: engineered single human antibody domain targeting a CD4i epitope on HIV-1 gp120, SEQ ID NO: 15 (antibody, V domains shown)
# VH: QVQLVQSGGGLVQPGGSLRLSCAASAFDFSDYEMSWVREAPGKGLEWIGEINDSGNTIYNPSLKSRVTISRDNSKNTLYLQMNTLRAEDTAIYYCAIYGGNSGGEYWGQGTLVTVSS
# Tests used:
# Assay type in all cases: cell-based
# HIV-1 Env JRFL = experiment: HIV-1 Env-mediated cell-cell fusion; conditions: Table 4, clade B, R5
# HIV-1 Env Bal = experiment: HIV-1 Env-mediated cell-cell fusion; conditions: Table 4, clade B, R5
# HIV-1 JRFL = experiment: Pseudotyped HIV-1 neutralization (HOS-CD4-CCR5 cells); conditions: Table 2, clade B, R5
# Experimental: (§1) To determine the potency and breadth of HIV-1 neutralization by the D1 mutants, viruses pseudotyped with Envs from HIV-1 isolates representing clades A-E and using either CCR5 (R5) or CXCR4 (X4) or both (R5X4) as a coreceptor were included. Pseudoviruses were derived from 293T cells and a neutralization assay was performed in duplicate using HOS-CD4-CCR5 (for all R5 and dual tropic viruses) or HOS-CD4-CXCR4 cell lines as described in Chen et al., Proc. Natl. Acad. Sci. USA, 105: 17121-17126 (2008)). Luminescence was measured 48 hours post-infection and the percentage neutralization was calculated by the following formula: (1—average RLU of inhibitor-containing wells/average RLU or virus-only wells)×100.
# HIV-1 Bal = experiment: as above; conditions: Table 2, clade B, R5
# Experimental: as §1
molecule,measurement,setting,value
B1,IC50,HIV-1 Env JRFL,128 nM
same,IC90,HIV-1 Env JRFL,1080 nM
same,IC90,HIV-1 Env Bal,235 nM
same,IC50,HIV-1 JRFL,18 nM
same,IC90,HIV-1 JRFL,106 nM
same,IC50,HIV-1 Bal,16 nM
same,IC90,HIV-1 Bal,75 nM
